Assays:
[1] = molecular target: recombinant human c-Met Fc chimera (human) (UniProt P08581); test: SPR, serine scan in the context of ECB15
[2] = molecular target: recombinant human c-Met Fc chimera (human) (UniProt P08581); test: SPR (ProteOn), c-Met-Fc captured by anti-human Fc
[3] = molecular target: recombinant human c-Met Fc chimera (human) (UniProt P08581); test: HGF competition (biotinylated HGF on coated c-Met-Fc)

| Binder | Fold Change of KD against parent [1] [fold] | Kd [1] [nM] | koff [1] [s⁻¹] | kon [1] [M⁻¹ s⁻¹] | Kd [2] [nM] | IC50 [3] [nM] |
| --- | --- | --- | --- | --- | --- | --- |
| A3 K78S (designed binder) LPAPKNLVVSEVTEDSARLSWDDPWAFYESFLIQYQESEKVGEAIVLTVPGSERSYDLTGLKPGTEYTVSIYGVHNVYKDTNMRGLPLSAIFTTAPAPAPAPAPLPAPKNLVVSRVTEDSARLSWTAPDAAFDSFWIRYFEFLGSGEAIVLTVPGSERSYDLTGLKPGTEYVVNIMGVKGGSISPPLSAIFTT | 0.75 | 0.3 | 0.00015 | 440000 |  |  |
| A3 G40S (designed binder) LPAPKNLVVSEVTEDSARLSWDDPWAFYESFLIQYQESEKVGEAIVLTVPGSERSYDLTGLKPGTEYTVSIYGVHNVYKDTNMRGLPLSAIFTTAPAPAPAPAPLPAPKNLVVSRVTEDSARLSWTAPDAAFDSFWIRYFEFLSSGEAIVLTVPGSERSYDLTGLKPGTEYVVNIMGVKGGKISPPLSAIFTT | 4.25 | 1.7 | 0.00032 | 185000 |  |  |
| A3 L39S (designed binder) LPAPKNLVVSEVTEDSARLSWDDPWAFYESFLIQYQESEKVGEAIVLTVPGSERSYDLTGLKPGTEYTVSIYGVHNVYKDTNMRGLPLSAIFTTAPAPAPAPAPLPAPKNLVVSRVTEDSARLSWTAPDAAFDSFWIRYFEFSGSGEAIVLTVPGSERSYDLTGLKPGTEYVVNIMGVKGGKISPPLSAIFTT | 6.75 | 2.7 | 0.00127 | 475000 |  |  |
| A3 V68S (designed binder) LPAPKNLVVSEVTEDSARLSWDDPWAFYESFLIQYQESEKVGEAIVLTVPGSERSYDLTGLKPGTEYTVSIYGVHNVYKDTNMRGLPLSAIFTTAPAPAPAPAPLPAPKNLVVSRVTEDSARLSWTAPDAAFDSFWIRYFEFLGSGEAIVLTVPGSERSYDLTGLKPGTEYSVNIMGVKGGKISPPLSAIFTT | 9 | 3.6 | 0.0012 | 329000 |  |  |
| A3 N70S (designed binder) LPAPKNLVVSEVTEDSARLSWDDPWAFYESFLIQYQESEKVGEAIVLTVPGSERSYDLTGLKPGTEYTVSIYGVHNVYKDTNMRGLPLSAIFTTAPAPAPAPAPLPAPKNLVVSRVTEDSARLSWTAPDAAFDSFWIRYFEFLGSGEAIVLTVPGSERSYDLTGLKPGTEYVVSIMGVKGGKISPPLSAIFTT | 14.8 | 5.9 | 0.00249 | 425000 |  |  |
| A3 P81S (designed binder) LPAPKNLVVSEVTEDSARLSWDDPWAFYESFLIQYQESEKVGEAIVLTVPGSERSYDLTGLKPGTEYTVSIYGVHNVYKDTNMRGLPLSAIFTTAPAPAPAPAPLPAPKNLVVSRVTEDSARLSWTAPDAAFDSFWIRYFEFLGSGEAIVLTVPGSERSYDLTGLKPGTEYVVNIMGVKGGKISSPLSAIFTT | 4.25 | 1.7 | 0.000536 | 321000 |  |  |
| A3 F36S (designed binder) LPAPKNLVVSEVTEDSARLSWDDPWAFYESFLIQYQESEKVGEAIVLTVPGSERSYDLTGLKPGTEYTVSIYGVHNVYKDTNMRGLPLSAIFTTAPAPAPAPAPLPAPKNLVVSRVTEDSARLSWTAPDAAFDSFWIRYSEFLGSGEAIVLTVPGSERSYDLTGLKPGTEYVVNIMGVKGGKISPPLSAIFTT | 68 | 27.2 | 0.00512 | 188000 |  |  |
| A3 W32S (designed binder) LPAPKNLVVSEVTEDSARLSWDDPWAFYESFLIQYQESEKVGEAIVLTVPGSERSYDLTGLKPGTEYTVSIYGVHNVYKDTNMRGLPLSAIFTTAPAPAPAPAPLPAPKNLVVSRVTEDSARLSWTAPDAAFDSFSIRYFEFLGSGEAIVLTVPGSERSYDLTGLKPGTEYVVNIMGVKGGKISPPLSAIFTT | 74.5 | 29.8 | 0.0086 | 289000 |  |  |
| A3 F38S (designed binder) LPAPKNLVVSEVTEDSARLSWDDPWAFYESFLIQYQESEKVGEAIVLTVPGSERSYDLTGLKPGTEYTVSIYGVHNVYKDTNMRGLPLSAIFTTAPAPAPAPAPLPAPKNLVVSRVTEDSARLSWTAPDAAFDSFWIRYFESLGSGEAIVLTVPGSERSYDLTGLKPGTEYVVNIMGVKGGKISPPLSAIFTT | 1790 | 717 | 0.0323 | 45100 |  |  |
| P114AR5P74-A5 (designed binder, not shown: small tags and cut ends) LPAPKNLVVSRVTEDSARLSWTAPDAAFDSFWIRYDEVVVGGEAIVLTVPGSERSYDLTGLKPGTEYYVNILGVKGGSISVPLSAIFTT |  |  |  |  | 10.1 | 5.2 |
| P114AR5P75-E9 (designed binder, not shown: small tags and cut ends) LPAPKNLVVSRVTEDSARLSWTAPDAAFDSFFIRYDEFLRSGEAIVLTVPGSERSYDLTGLKPGTEYWVTILGVKGGLVSTPLSAIFTT |  |  |  |  | 45.8 | 51.9 |
| P114AR7P92-F6 (designed binder, not shown: small tags and cut ends) LPAPKNLVVSRVTEDSARLSWTAPDAAFDSFWIRYFEFLGSGEAIVLTVPGSERSYDLTGLKPGTEYVVNILGVKGGGLSVPLSAIFTT |  |  |  |  | 3.1 | 2.2 |
| P114AR7P92-G8 (designed binder, not shown: small tags and cut ends) LPAPKNLVVSRVTEDSARLSWTAPDAAFDSFVIRYFEFLGSGEAIVLTVPGSERSYDLTGLKPGTEYVVQILGVKGGYISIPLSAIFTT |  |  |  |  | 1 | 1.6 |
| P114AR7P92-H5 (designed binder, not shown: small tags and cut ends) LPAPKNLVVSRVTEDSARLSWTAPDAAFDSFWIRYLEFLLGGEAIVLTVPGSERSYDLTGLKPGTEYVVQIMGVKGGTVSPPLSAIFTT |  |  |  |  | 11.6 |  |
| P114AR7P93-G8 (designed binder, not shown: small tags and cut ends) LPAPKNLVVSRVTEDSARLSWTAPDAAFDSFWIRYFEFLGSGEAIVLTVPGSERSYDLTDLKPGTEYGVTINGVKGGRVSTPLSAIFTT |  |  |  |  | 6.9 | 1 |
| P114AR7P94-A3 (designed binder, not shown: small tags and cut ends) LPAPKNLVVSRVTEDSARLSWTAPDAAFDSFWIRYFEFLGSGEAIVLTVPGSERSYDLTGLKPGTEYVVNIMGVKGGKISPPLSAIFTT |  |  |  |  | 0.4 | 0.2 |
| P114AR7P94-E5 (designed binder, not shown: small tags and cut ends) LPAPKNLVVSRVTEDSARLSWTAPDAAFDSFWIRYFEFLGSGEAIVLTVPGSERSYDLTGLKPGTEYAVNIMGVKGGRVSVPLSAIFTT |  |  |  |  | 4.2 | 0.7 |
| P114AR7P95-D4 (designed binder, not shown: small tags and cut ends) LPAPKNLVVSRVTEDSARLSWTAPDAAFDSFWIRYFEFLGSGEAIVLTVPGSERSYDLTGLKPGTEYVVQILGVKGGYISIPLSAIFTT |  |  |  |  | 0.4 |  |
| P114AR7P95-G7 (designed binder, not shown: small tags and cut ends) LPAPKNLVVSRVTEDSARLSWTAPDAAFDSFWIRYFELLSTGEAIVLTVPGSERSYDLTGLKPGTEYVVNIMGVKGGSISPPLSAIFTT |  |  |  |  | 20 |  |
| P114AR7P95-H8 (designed binder, not shown: small tags and cut ends) LPAPKNLVVSRVTEDSARLSWTAPDAAFDSFWIRYFEFVSKGEAIVLTVPGSERSYDLTGLKPGTEYVVNIMGVKGGSISPPLSAIFTT |  |  |  |  | 3.7 |  |
